The record followed here is patent US8501696.

The target in experiment [1] is human IL-6/sIL-6R complex (interleukin-6 plus soluble interleukin-6 receptor) (human) (UniProt P05231). The experiment can be described thus: cell-based or functional assay.
The target in experiment [2] is Hyper-IL-6 (designer cytokine consisting of covalently linked IL-6 and sIL-6R) (human) (UniProt P08887). The experiment can be described thus: cell-based or functional assay.
Target sequence in this assay (P08887 20-323 limits assumed, chain 1 of 2): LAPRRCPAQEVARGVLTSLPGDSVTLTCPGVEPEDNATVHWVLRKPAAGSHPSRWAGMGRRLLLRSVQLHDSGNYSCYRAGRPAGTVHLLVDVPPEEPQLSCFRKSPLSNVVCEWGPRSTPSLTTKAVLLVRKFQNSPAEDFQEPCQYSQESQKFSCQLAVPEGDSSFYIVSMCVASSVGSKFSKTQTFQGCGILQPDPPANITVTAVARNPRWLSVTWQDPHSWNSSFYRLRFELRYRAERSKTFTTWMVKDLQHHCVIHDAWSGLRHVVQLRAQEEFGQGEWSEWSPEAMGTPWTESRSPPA
Target sequence in this assay (P05231 30-212 limits assumed, chain 2 of 2, further chain): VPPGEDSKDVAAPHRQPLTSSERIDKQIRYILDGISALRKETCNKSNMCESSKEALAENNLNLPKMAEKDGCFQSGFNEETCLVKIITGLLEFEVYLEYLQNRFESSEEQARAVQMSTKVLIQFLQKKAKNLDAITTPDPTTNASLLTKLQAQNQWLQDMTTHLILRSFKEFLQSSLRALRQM
Experiment [3] shares this target. The experiment can be described thus: SPR, ProteOn XPR36, mutein immobilised, Hyper-IL-6 80 to 2.5 nM in flow, 25 C.
Target sequence in this assay (P08887 20-323 limits assumed, chain 1 of 2): as the sequence (P08887 20-323 limits assumed, chain 1 of 2) above
Target sequence in this assay (P05231 30-212 limits assumed, chain 2 of 2, further chain): as the sequence (P05231 30-212 limits assumed, chain 2 of 2, further chain) above
Experiment [4] concerns the target human gp130 on the BAF3 cell surface (human) (UniProt P40189). The experiment can be described thus: cell-based or functional assay.
Experiment [5] concerns the target Hyper-IL-6 (designer cytokine consisting of covalently linked IL-6 and sIL-6R) (human) (UniProt P08887). The experiment can be described thus: SPR. The conditions noted are these: Fc fusion.
Target sequence in this assay (P08887 20-323, chain 1 of 2): as the sequence (P08887 20-323 limits assumed, chain 1 of 2) above
Target sequence in this assay (P05231 30-212, chain 2 of 2, further chain): as the sequence (P05231 30-212 limits assumed, chain 2 of 2, further chain) above

human gp130 on the BAF3 cell surface (human), sequence (P40189 23-918): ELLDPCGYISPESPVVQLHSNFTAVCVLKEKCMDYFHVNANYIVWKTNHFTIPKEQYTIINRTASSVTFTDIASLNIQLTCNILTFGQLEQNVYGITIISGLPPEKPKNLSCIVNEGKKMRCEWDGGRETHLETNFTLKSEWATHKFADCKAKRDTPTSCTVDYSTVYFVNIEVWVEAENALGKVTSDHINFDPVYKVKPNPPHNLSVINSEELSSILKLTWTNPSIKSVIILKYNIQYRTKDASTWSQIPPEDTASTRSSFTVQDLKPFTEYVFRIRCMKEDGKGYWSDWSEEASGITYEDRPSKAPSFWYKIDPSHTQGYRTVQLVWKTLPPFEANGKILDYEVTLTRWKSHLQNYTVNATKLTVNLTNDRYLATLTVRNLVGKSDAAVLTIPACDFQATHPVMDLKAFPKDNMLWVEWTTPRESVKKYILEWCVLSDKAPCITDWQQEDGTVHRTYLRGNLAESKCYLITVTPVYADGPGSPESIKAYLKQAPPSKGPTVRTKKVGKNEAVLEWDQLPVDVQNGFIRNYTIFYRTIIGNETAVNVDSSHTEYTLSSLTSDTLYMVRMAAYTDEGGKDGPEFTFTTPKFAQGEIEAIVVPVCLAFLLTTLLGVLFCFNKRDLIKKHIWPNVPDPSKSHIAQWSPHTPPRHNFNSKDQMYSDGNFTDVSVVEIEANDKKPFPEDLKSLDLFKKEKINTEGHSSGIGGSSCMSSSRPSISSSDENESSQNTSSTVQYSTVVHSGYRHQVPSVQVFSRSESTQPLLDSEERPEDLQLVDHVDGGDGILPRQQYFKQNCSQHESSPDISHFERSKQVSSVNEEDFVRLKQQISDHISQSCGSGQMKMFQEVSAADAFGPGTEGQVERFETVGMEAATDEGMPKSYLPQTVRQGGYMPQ
human IL-6/sIL-6R complex (interleukin-6 plus soluble interleukin-6 receptor) (human), sequence (P05231 30-212 limits assumed, chain 1 of 2): as the sequence (P05231 30-212 limits assumed, chain 2 of 2, further chain) above
human IL-6/sIL-6R complex (interleukin-6 plus soluble interleukin-6 receptor) (human), sequence (P08887 20-358 limits assumed, chain 2 of 2, further chain): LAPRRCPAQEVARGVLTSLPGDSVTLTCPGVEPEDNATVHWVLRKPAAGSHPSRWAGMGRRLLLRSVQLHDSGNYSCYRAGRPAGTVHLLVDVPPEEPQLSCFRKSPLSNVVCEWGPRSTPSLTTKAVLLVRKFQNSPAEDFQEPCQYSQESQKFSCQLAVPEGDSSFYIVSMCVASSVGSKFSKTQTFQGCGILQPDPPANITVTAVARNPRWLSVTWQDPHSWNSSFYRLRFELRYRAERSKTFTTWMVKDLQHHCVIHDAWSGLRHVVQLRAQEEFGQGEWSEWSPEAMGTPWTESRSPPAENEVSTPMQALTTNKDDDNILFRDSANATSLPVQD

With “sgp130Fc triple mutein Thr102Tyr/Gln113Phe/Asn114Leu (T102Y/Q113F/N114L) (from UniProt P40189 23-619) (Fc fusion)”, the IC50 of inhibition of BAF3/gp130 proliferation, fold lower than wild type sgp130Fc (MTS assay) in experiment [1] worked out at 3 fold. Also, in experiment [2], the IC50 of inhibition of BAF3/gp130 proliferation, fold lower than wild type sgp130Fc (Cell Titer-Blue assay) is > 3 fold. Further, the fold increase of the affinity constant KD against wild type sgp130Fc in experiment [3] turned out to be 4 fold.

“murine IL-6/sIL-6R complex (from UniProt P08505 25-211; P22272 20-364) (ligand)”: the amount needed for the same proliferation signal in BAF3/gp130 cells, against human IL-6/sIL-6R in experiment [4] turned out to be 3 fold.

Regarding “sgp130Fc triple mutein Thr102Tyr/Gln113Phe/Asn114Leu (T102Y/Q113F/N114L) (from UniProt P40189 23-619)”, the Kd in experiment [5] was determined as 0.122 nM.
